According to patent publication US20180142007A1 (AXON NEUROSCIENCE, published 2018):

T1: tau peptide 256-285 (human)
T1 construct: Synthetic peptide (EZBiolabs), numbered on tau 2N4R
T1 peptide: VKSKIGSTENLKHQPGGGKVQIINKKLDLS

T2: tau peptide 282-311 (human)
T2 construct: Synthetic peptide (EZBiolabs), numbered on tau 2N4R; also called peptide derived from MTBRII
T2 peptide: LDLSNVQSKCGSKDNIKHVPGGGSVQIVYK

T3: tau peptide 314-342 (human)
T3 construct: Synthetic peptide (EZBiolabs), numbered on tau 2N4R
T3 peptide: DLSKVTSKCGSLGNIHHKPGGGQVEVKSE

T4: tau peptide 352-380 (human)
T4 construct: Synthetic peptide (EZBiolabs), numbered on tau 2N4R
T4 peptide: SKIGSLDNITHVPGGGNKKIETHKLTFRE


Experiments:
[1] = biological target: T5, misdisordered truncated tau 151-391/4R (human, UniProt P10636 468-708); experiment: assay not named in the sentence (tau binding assay of the examples)
T5 construct: Recombinant, from clone tau40 in pET-17b, expressed in E. coli; numbered on the longest human tau isoform 2N4R (441 aa); An added start methionine is not mentioned; also called tauΔ(1-150;392-441)/4R; misdisordered tau II
T5 sequence (P10636 468-708): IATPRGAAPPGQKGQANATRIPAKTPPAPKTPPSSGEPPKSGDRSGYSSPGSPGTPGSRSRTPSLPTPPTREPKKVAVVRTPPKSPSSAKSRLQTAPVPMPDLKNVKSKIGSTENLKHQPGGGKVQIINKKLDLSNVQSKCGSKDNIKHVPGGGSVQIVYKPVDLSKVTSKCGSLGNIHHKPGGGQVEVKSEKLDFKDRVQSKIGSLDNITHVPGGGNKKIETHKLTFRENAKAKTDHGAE

[2] = biological target: T5, misdisordered truncated tau 151-391/4R; experiment: binding ELISA of IgG4 versions, plate coated with Tau 151-391/4R
[3] = biological target: T5, misdisordered truncated tau 151-391/4R; experiment: cell-based or functional assay
tau peptide 256-285 = biological target: T1, tau peptide 256-285; experiment: direct ELISA, tau peptide coated on plate
tau peptide 282-311 = biological target: T2, tau peptide 282-311; experiment: direct ELISA, tau peptide coated on plate
tau peptide 314-342 = biological target: T3, tau peptide 314-342; experiment: direct ELISA, tau peptide coated on plate
tau peptide 352-380 = biological target: T4, tau peptide 352-380; experiment: direct ELISA, tau peptide coated on plate

Binder	binding result (tau peptide 282-311)	binding result (tau peptide 314-342)	binding result (tau peptide 352-380)	other results
AX038, humanized DC8E8 RHM/RKB (isotype not stated where tested) (antibody, V domains shown, also called RHM version) VH: QVQLVQSGAEVKKPGSSVKVSCKASGYIFSDYVISWVRQAPGQGLEWMGEIFPRSGSTYYNEKFKGRVTITADKSTSTAYMELSSLRSEDTAVYYCARDYYGTSFAMDYWGQGTLVTVSS VL: DIVMSQSPLSLPVTPGEPASISCKSSQSLLNSRTRKNYLAWYLQKPGQSPQLLIYWASTRESGVPDRFTGSGSGTDFTLKISRVEAEDVGVYYCKQSFYLRTFGQGTKVEIKR				binding result [1]: binds
AX028-IgG4, RHD heavy chain with chimeric DC8E8 kappa light chain, IgG4 isotype (antibody, V domains shown, also called AXON028-IgG4; RHD/VK) VH: QVQLVQSGAEVKKPGSSVKVSCKASGYTFSDYVISWVRQAPGQGLEWMGEIFPRSGSTYYNEKFKGRVTITADKSTSTAYMELSSLRSEDTAVYYCARDYYGTSFAMDYWGQGTLVTVSS VL: DIVMSQSPSSLAVSAGEKVTMSCKSSQSLLNSRTRKNYLAWYQQKPGQSPKLLIYWASTRESGVPDRFTGSGSGTDFTLTISSVQAEDLAVYYCKQSFYLRTFGGGTKLDIKR				binding result [2]: binds
AX001, humanized DC8E8 RHA/RKA (isotype not stated where tested) (antibody, V domains shown, also called initial humanized version) VH: QVQLVQSGAEVKKPGSSVKVSCKASGGTFSDYVISWVRQAPGQGLEWMGEIFPRSGSTYYNEKFKGRVTITADKSTSTAYMELSSLRSEDTAVYYCARDYYGTSFAMDYWGQGTLVTVSS VL: DIVMTQSPLSLPVTPGEPASISCKSSQSLLNSRTRKNYLAWYLQKPGQSPQLLIYWASTRESGVPDRFTGSGSGTDFTLKISRVEAEDVGVYYCKQSFYLRTFGQGTKVEIKR				fold decrease in binding affinity relative to chimeric DC8E8 [1]: 10 fold
AX026-IgG4, RHB heavy chain with chimeric DC8E8 kappa light chain, IgG4 isotype (antibody, V domains shown, also called AXON026-IgG4; RHB/VK) VH: QVQLVQSGPEVKKPGSSVKVPCKASGYIFTDYVISWVKQAPGQGLEWIGEIFPRSGSTYYNEKFKGKATLTADKSTSTAYMELSSLRSEDTAVYFCARDYYGTSFAMDYWGQGTLVTVSS VL: DIVMSQSPSSLAVSAGEKVTMSCKSSQSLLNSRTRKNYLAWYQQKPGQSPKLLIYWASTRESGVPDRFTGSGSGTDFTLTISSVQAEDLAVYYCKQSFYLRTFGGGTKLDIKR				binding result [2]: binds
AX037, humanized DC8E8 RHM/RKA (isotype not stated where tested) (antibody, V domains shown, also called RHM version) VH: QVQLVQSGAEVKKPGSSVKVSCKASGYIFSDYVISWVRQAPGQGLEWMGEIFPRSGSTYYNEKFKGRVTITADKSTSTAYMELSSLRSEDTAVYYCARDYYGTSFAMDYWGQGTLVTVSS VL: DIVMTQSPLSLPVTPGEPASISCKSSQSLLNSRTRKNYLAWYLQKPGQSPQLLIYWASTRESGVPDRFTGSGSGTDFTLKISRVEAEDVGVYYCKQSFYLRTFGQGTKVEIKR				binding result [1]: binds
AX014, humanized DC8E8 RHB/RKB (isotype not stated where tested) (antibody, 2 (a CDR)) VH: QVQLVQSGPEVKKPGSSVKVPCKASGYIFTDYVISWVKQAPGQGLEWIGEIFPRSGSTYYNEKFKGKATLTADKSTSTAYMELSSLRSEDTAVYFCARDYYGTSFAMDYWGQGTLVTVSS light: DIVMSQSPLSLPVTPGEPASISCKSSQSLLNSRTRKNYLAWYLQKPGQSPQLLIYWASTRESGVPDRFTGSGSGTDFTLKISRVEAEDVGVYYCKQSFYLRTFGQGTKVEIKRTVAAPSVFIFPPSDEQLKSGTASVVCLLNNFYPREAKVQWKVDNALQSGNSQESVTEQDSKDSTYSLSSTLTLSKADYEKHKVYACEVTHQGLSSPVTKSFNRGEC				binding result [1]: binds
AX029-IgG4, RHE heavy chain with chimeric DC8E8 kappa light chain, IgG4 isotype (antibody, V domains shown, also called AXON029-IgG4; RHE/VK) VH: QVQLVQSGAEVKKPGSSVKVSCKASGGIFSDYVISWVRQAPGQGLEWMGEIFPRSGSTYYNEKFKGRVTITADKSTSTAYMELSSLRSEDTAVYYCARDYYGTSFAMDYWGQGTLVTVSS VL: DIVMSQSPSSLAVSAGEKVTMSCKSSQSLLNSRTRKNYLAWYQQKPGQSPKLLIYWASTRESGVPDRFTGSGSGTDFTLTISSVQAEDLAVYYCKQSFYLRTFGGGTKLDIKR				binding result [2]: binds
AX004-IgG1, humanized DC8E8 RHD/RKA, IgG1 isotype (antibody, Expressed in Expi293, purified on Protein A and by size exclusion) heavy: not shown light: DIVMTQSPLSLPVTPGEPASISCKSSQSLLNSRTRKNYLAWYLQKPGQSPQLLIYWASTRESGVPDRFTGSGSGTDFTLKISRVEAEDVGVYYCKQSFYLRTFGQGTKVEIKRTVAAPSVFIFPPSDEQLKSGTASVVCLLNNFYPREAKVQWKVDNALQSGNSQESVTEQDSKDSTYSLSSTLTLSKADYEKHKVYACEVTHQGLSSPVTKSFNRGEC	binds	binds	binds	amount of fibrillized pathological tau forms (Thioflavin T fluorescence), antibody at 10 uM [3]: < 3%; binding result (tau peptide 256-285): binds
AX004-IgG4, humanized DC8E8 RHD/RKA, IgG4 isotype (antibody, Expressed in Expi293; also called AXON004-IgG4) heavy: not shown light: DIVMTQSPLSLPVTPGEPASISCKSSQSLLNSRTRKNYLAWYLQKPGQSPQLLIYWASTRESGVPDRFTGSGSGTDFTLKISRVEAEDVGVYYCKQSFYLRTFGQGTKVEIKRTVAAPSVFIFPPSDEQLKSGTASVVCLLNNFYPREAKVQWKVDNALQSGNSQESVTEQDSKDSTYSLSSTLTLSKADYEKHKVYACEVTHQGLSSPVTKSFNRGEC	binds	binds	binds	amount of fibrillized pathological tau forms (Thioflavin T fluorescence), antibody at 10 uM [3]: < 3%; binding result (tau peptide 256-285): binds
AX016-IgG4, humanized DC8E8 RHD/RKB, IgG4 isotype (antibody, Expressed in Expi293; also called AXON016-IgG4) heavy: not shown light: DIVMSQSPLSLPVTPGEPASISCKSSQSLLNSRTRKNYLAWYLQKPGQSPQLLIYWASTRESGVPDRFTGSGSGTDFTLKISRVEAEDVGVYYCKQSFYLRTFGQGTKVEIKRTVAAPSVFIFPPSDEQLKSGTASVVCLLNNFYPREAKVQWKVDNALQSGNSQESVTEQDSKDSTYSLSSTLTLSKADYEKHKVYACEVTHQGLSSPVTKSFNRGEC	binds	binds	binds	amount of fibrillized pathological tau forms (Thioflavin T fluorescence), antibody at 10 uM [3]: < 3%; binding result (tau peptide 256-285): binds
AX014-IgG4, humanized DC8E8 RHB/RKB, IgG4 isotype (antibody, also called AXON014-IgG4) heavy: not shown light: DIVMSQSPLSLPVTPGEPASISCKSSQSLLNSRTRKNYLAWYLQKPGQSPQLLIYWASTRESGVPDRFTGSGSGTDFTLKISRVEAEDVGVYYCKQSFYLRTFGQGTKVEIKRTVAAPSVFIFPPSDEQLKSGTASVVCLLNNFYPREAKVQWKVDNALQSGNSQESVTEQDSKDSTYSLSSTLTLSKADYEKHKVYACEVTHQGLSSPVTKSFNRGEC				binding result [2]: binds
AX002-IgG4, humanized DC8E8 RHB/RKA, IgG4 isotype (antibody, also called AXON002-IgG4) heavy: not shown light: DIVMTQSPLSLPVTPGEPASISCKSSQSLLNSRTRKNYLAWYLQKPGQSPQLLIYWASTRESGVPDRFTGSGSGTDFTLKISRVEAEDVGVYYCKQSFYLRTFGQGTKVEIKRTVAAPSVFIFPPSDEQLKSGTASVVCLLNNFYPREAKVQWKVDNALQSGNSQESVTEQDSKDSTYSLSSTLTLSKADYEKHKVYACEVTHQGLSSPVTKSFNRGEC				binding result [2]: binds

Second part, led by results:

binding result (tau peptide 282-311)	binding result (tau peptide 314-342)	binding result (tau peptide 352-380)	Binder	other results
binds	binds	binds	AX005-IgG1, humanized DC8E8 RHE/RKA, IgG1 isotype (antibody, Expressed in Expi293, purified on Protein A and by size exclusion) heavy: not shown light: DIVMTQSPLSLPVTPGEPASISCKSSQSLLNSRTRKNYLAWYLQKPGQSPQLLIYWASTRESGVPDRFTGSGSGTDFTLKISRVEAEDVGVYYCKQSFYLRTFGQGTKVEIKRTVAAPSVFIFPPSDEQLKSGTASVVCLLNNFYPREAKVQWKVDNALQSGNSQESVTEQDSKDSTYSLSSTLTLSKADYEKHKVYACEVTHQGLSSPVTKSFNRGEC	
binds	binds	binds	AX017-IgG4, humanized DC8E8 RHE/RKB, IgG4 isotype (antibody, Expressed in Expi293; also called AXON017-IgG4) heavy: not shown light: DIVMSQSPLSLPVTPGEPASISCKSSQSLLNSRTRKNYLAWYLQKPGQSPQLLIYWASTRESGVPDRFTGSGSGTDFTLKISRVEAEDVGVYYCKQSFYLRTFGQGTKVEIKRTVAAPSVFIFPPSDEQLKSGTASVVCLLNNFYPREAKVQWKVDNALQSGNSQESVTEQDSKDSTYSLSSTLTLSKADYEKHKVYACEVTHQGLSSPVTKSFNRGEC	
binds	binds	binds	AX017-IgG1, humanized DC8E8 RHE/RKB, IgG1 isotype (antibody, Expressed in Expi293, purified on Protein A and by size exclusion) heavy: not shown light: DIVMSQSPLSLPVTPGEPASISCKSSQSLLNSRTRKNYLAWYLQKPGQSPQLLIYWASTRESGVPDRFTGSGSGTDFTLKISRVEAEDVGVYYCKQSFYLRTFGQGTKVEIKRTVAAPSVFIFPPSDEQLKSGTASVVCLLNNFYPREAKVQWKVDNALQSGNSQESVTEQDSKDSTYSLSSTLTLSKADYEKHKVYACEVTHQGLSSPVTKSFNRGEC	
binds	binds	binds	AX016-IgG1, humanized DC8E8 RHD/RKB, IgG1 isotype (antibody, Expressed in Expi293, purified on Protein A and by size exclusion) heavy: not shown light: DIVMSQSPLSLPVTPGEPASISCKSSQSLLNSRTRKNYLAWYLQKPGQSPQLLIYWASTRESGVPDRFTGSGSGTDFTLKISRVEAEDVGVYYCKQSFYLRTFGQGTKVEIKRTVAAPSVFIFPPSDEQLKSGTASVVCLLNNFYPREAKVQWKVDNALQSGNSQESVTEQDSKDSTYSLSSTLTLSKADYEKHKVYACEVTHQGLSSPVTKSFNRGEC	amount of fibrillized pathological tau forms (Thioflavin T fluorescence), antibody at 10 uM [3]: < 3%; binding result (tau peptide 256-285): binds
binds	binds	binds	AX005-IgG4, humanized DC8E8 RHE/RKA, IgG4 isotype (antibody, Expressed in Expi293; also called AXON005-IgG4) heavy: not shown light: DIVMTQSPLSLPVTPGEPASISCKSSQSLLNSRTRKNYLAWYLQKPGQSPQLLIYWASTRESGVPDRFTGSGSGTDFTLKISRVEAEDVGVYYCKQSFYLRTFGQGTKVEIKRTVAAPSVFIFPPSDEQLKSGTASVVCLLNNFYPREAKVQWKVDNALQSGNSQESVTEQDSKDSTYSLSSTLTLSKADYEKHKVYACEVTHQGLSSPVTKSFNRGEC	
